Assay results taken from the supplement of paper PMC9170038.

Test system: K4 kissing-loop RNA reporter
Experiment: apparent KD of K4 kissing-loop reporter; higher = weaker reporter binding
Settings: Eterna round: R107
Experimental: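 RNA-MaP round R107: designed RNA switches with theophylline, tryptophan, arginine or FMN aptamers are transcribed on-chip within common flanks. They are titrated with a labelled K4 kissing-loop RNA reporter in RNA-MaP buffer (100 mM Tris pH 7.5, 80 mM KCl, 4 mM MgCl2), without ligand or with the indicated ligand. Median apparent KD per design.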

[1] = input ligand: theophylline 20 uM
[2] = input ligand: tryptophan 2.4 mM
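Further: bound reporter read as fluorescence of individual clusters on recovered sequencing chips by microscopy, with normalized cluster intensities fitted with a binding model.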

Sequence	apparent KD of K4 kissing-loop reporter (input ligand: FMN 200 uM) [nM]	apparent KD of K4 kissing-loop reporter (input ligand: arginine 13.2 mM) [nM]	apparent KD of K4 kissing-loop reporter (input ligand: none) [nM]	apparent KD of K4 kissing-loop reporter [1] [nM]	apparent KD of K4 kissing-loop reporter [2] [nM]
GAUGAAUGCGGAAGGAGCGAGUUUUUGGGAGUGAUGUUCCCUGCAUAUGCACGUGGGAAAGCUCAGGUAGGUCGCCGCGCUUGUU [Same State Arginine B GF 28]	183	244	324	208	204
GAUGGUGGCAGUGAAGUGAUGUUUCAUGAUACCAGUUUUAUAAGUAACCCUUGGCAGCAUCGUACGCAGCGUAGUGGACAUCACG [theeternabot_exclusion_KL_Theo_A_25]	129	128	140	241	149
GAUGUUUGCCGAAGGAGCGAGUAUUCGCCAGUGAUGUUGGUGAGAUAUACACGUAUCAGUGCUCAGGUAGGUCGCGGCGCUUGUU [Same State Arginine B GF 27]	123	107	129	135	117
GAUUCUGUUCGAAAGAACGGAAUCUCGGAAGGAGCGAGAGAAAUCUCAGGUAGGUCGCCGAAUUUUUGAUAGUGAUGUUAUCAUU [Arginine A K4 3]	432	380	441	393	397
GAUUUAGAGGCGGCCGCCACUAGUGAUGUUAGUGAUGUUUGAUACUGAAUAUAUCUGCGAGUAGAUAGGACCGGGCCAGAUGGAG [plmfmullin]	225	154	195	179	182
GAUUUAGAGGCGGCCGCCACUAGUGAUGUUAGUGAUGUUUGAUACUGUAUAUAUCGGCGUGUAGAUAGGACCGGGCCAGAUGGAG [tbqqmullin]	281	157	235	229	221
GAUUUAGAGGCGGCCGCCACUAGUGAUGUUAGUGAUGUUUGAUAGGGAAUAUAUCAGCGAGUAGAUAGGACCGGGCCAGAUGGAG [gtggbmullin]	248	183	203	189	167
GCAAACCUCAGUGAUGUUGAGUAAUCGGAAGGAGCGCGUGAAAACGCAGGUAGGUCGCCGAUACAUGAAGUAUCUUCGUGUUUGC [Arginine A K4 23]	284	365	354	380	274
GCACACUAGUAAACUAGUGUGUUAACUGAAGGAGCGUGAAUAAUCACAGGUAGGUCGCAGUUUGUCAGUGAUGUUGACACGAGUG [Arg A SS t2]	165	217	249	247	179
GCAGGACGAUGAGGAGGAUGAAUUACUGAAGGAGCGCAUAUGGUUGCAGGUAGGUCGCGGUGAACAAGUAUAGUGAUGUUAUAUC [SSArgA.R]	755	179	138	471	1050
GCAGUGAUGUUGCGAAUCGGCCAUGAUACAGAGGAUAUCGUGCCUUCGAGAAGGUUGUAUAGAGGAUACGAUAUUAUAAAUGACG [Same State FMN A GF 1]	353	384	432	436	348
GCAGUGAUGUUGCGGAUGUACAGUGGAGUGCGAGGACCGGUACGGCCGCCACUCGUACAGAACAAGCUAAUAUAUCGAUAGGUGA [X]	203	242	263	282	157
GCAGUGAUGUUGCGGAUGUACAGUGGCGUGCGAGGACCGGUACGGCCGCCACUCGUACAGAGCCAGCUAAUACAUCGAUAGGUGA [whbob_SS_Tryp_A_m6]	289	177	239	296	322
GCAGUGAUGUUGCGGAUGUACAGUGGCGUGCGAGGACCGGUACGGCCGCCACUCGUACAGAGCCAGCUAAUACAUCGAUUGGUGA [whbob_SS_Tryp_A_m7]	387	176	206	157	212
GCAGUGAUGUUGCUGAUGUACAGUGGGAUACGAGGACCGGUACGGCCGCCACUCGUACAGAACUUAUUAAUACAUCGAUAAGUGA [XIV]	534	612	710	643	687
GCCGUACGCAUGGAUACCAGCAAUCAAACGUCAUGCGAAGUGAUGUUUCGCUUACGGUAGUGCCCUUGGCAGCCAUGCGUACGGC	142	124	123	91.2	130
GCCGUACGCAUGGAUACCAGCACUCGUUGAGUGAUGUUCACGAGGUGGUAUUCGACGGGCUGCCCUUGGCAGCCAUGCGUACGGC	111	87.3	102	99	121
GCCGUACGCAUGGAUACCAGCAGAACUGCCCUCCCAGUGAUGUUGGGAGGAUCUUUCCUAUGCCCUUGGCAGCCAUGCGUACGGC	148	113	126	117	117
GCCGUACGCAUGGAUACCAGCAUCGACUCAUAUACAGUGAUGUUGUGUAAUGACCUCAUUUGCCCUUGGCAGCCAUGCGUACGGC	471	291	620	857	800
GCCGUAGAUUGAAGGAGCGGCUUCAUCAAAUCUCUUGCCCGCACCAGUGAUGUUGGUGUUAGCCAGGUAGGUCGCAAUCUACGGC	577	376	583	493	465
GCCUGAGCACGAAGGAGCGCCGUGACAGGUUACUGCCUUGGGCAGUGAUGUUGCUCAAUCUGGCAGGUAGGUCGCGUGCUCAGGC	165	161	162	131	167
GCCUGUGCGCGAAGGAGCGCCGUGACAGGUUACUGCCUUGGGCAGUGAUGUUGCUCAAUCUGGCAGGUAGGUCGCGUGCACAGGC	236	187	201	156	192
